Source: patent US20240352111A1 (Regeneron, published 2024)

What was measured:
hArtemin-MMH [1] = molecular target: T1, hArtemin-MMH (human); assay: cell-based or functional assay
T1 chain: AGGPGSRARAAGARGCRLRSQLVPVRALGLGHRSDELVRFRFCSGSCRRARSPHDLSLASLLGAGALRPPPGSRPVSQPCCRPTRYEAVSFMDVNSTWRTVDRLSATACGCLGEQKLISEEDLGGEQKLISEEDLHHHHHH

MfArtemin-MMH [2] = molecular target: T2, MfArtemin-MMH (cynomolgous monkey (Macaca fascicularis)); assay: cell-based or functional assay
T2 chain: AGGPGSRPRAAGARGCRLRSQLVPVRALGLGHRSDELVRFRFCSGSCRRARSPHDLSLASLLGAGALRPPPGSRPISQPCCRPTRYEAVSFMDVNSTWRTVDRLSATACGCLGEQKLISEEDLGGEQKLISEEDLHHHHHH

mArtemin-MMH [3] = molecular target: T3, mArtemin-MMH (mouse); assay: cell-based or functional assay
T3 chain: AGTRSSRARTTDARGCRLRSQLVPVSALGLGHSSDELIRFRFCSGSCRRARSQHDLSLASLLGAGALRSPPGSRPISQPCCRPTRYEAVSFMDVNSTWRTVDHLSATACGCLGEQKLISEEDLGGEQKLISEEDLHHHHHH

MfArtemin-MMH [4] = molecular target: T2, MfArtemin-MMH; assay: BLI (Octet HTX), mAb captured on AHC tips, artemin at 30 nM, 25 C
Method: (§1) The entire experiment was performed at 25° C. in 10 mM HEPES, 150 mM NaCl, 3 mM EDTA, 0.02% NaN3 and 0.05% v/v Surfactant Tween-20, 1 mg/mL BSA, pH7.4 (HBS-EBT) buffer with the plate shaking at a speed of 1000 rpm. Different Artemin mAbs were first captured onto anti-human antibody (AHC) coated Octet biosensor tips (Fortebio Inc, #18-5064) by submerging the biosensor tips for 40 seconds in wells containing 2 μg/mL of Artemin mAb. […] All the Artemin and Artemin mAb samples were prepared in HBS-EBT buffer. The real-time binding response was monitored during the entire course of the experiment and the binding response at the end of every step was recorded.

mArtemin-MMH [5] = molecular target: T3, mArtemin-MMH; assay: as above
Method: as §1

hArtemin-MMH [6] = molecular target: T1, hArtemin-MMH; assay: BLI (Octet HTX), mAb captured on AHC tips, artemin at 3.75 nM, 25 C
Method: as §1

MfArtemin-MMH [7] = molecular target: T2, MfArtemin-MMH; assay: as above
Method: as §1

mArtemin-MMH [8] = molecular target: T3, mArtemin-MMH; assay: as above
Method: as §1

mArtemin-MMH [9] = molecular target: T3, mArtemin-MMH; assay: blocking ELISA, antibody blocks 150 pM msARTN.mmh binding to plate-coated hGFRa3.hFc
Method: (§2) Experiments were carried out using the following procedures. Plates were coated with hGFRa3.hFc at 2 μg/ml in PBS on a 96-well microtiter plate at 4° C. overnight for all three assays. […] In other microtiter plates, a constant amount of either 75 pM hARTN.mmh, 400 pM mfARTN.mmh, or 150 pM msARTN.mmh were separately bound with anti-ARTN antibodies and an irrelevant IgG4 antibody control at a serial dilution series from 0.0017 nM to 100 nM in PBS+0.5% BSA. After a one-hour incubation, the mixture solutions were transferred to microtiter plates coated with hGFRa3.hFc. After one hour of incubation at RT, the wells were washed with PBST, and plate-bound ARTN was detected with an anti-penta-His antibody conjugated with horseradish peroxidase (HRP) (Qiagen). The plates were then developed using TMB substrate solution (BD Biosciences, #555214) according to manufacturer's recommendation and absorbance at 450 nm was measured on a Victor X5 plate reader.
(§3) Binding data were analyzed using a sigmoidal dose-response model within Prism™ software (GraphPad). […] If the calculated IC50 value was below the LLOA, less than LLOA was reported. Percent blocking at 100 nM antibody was calculated based on the background-corrected binding signal observed at the highest antibody concentration tested using the formula listed below and reported for all tested antibodies: […]

MfArtemin-MMH [10] = molecular target: T2, MfArtemin-MMH; assay: blocking ELISA, antibody blocks 400 pM mfARTN.mmh binding to plate-coated hGFRa3.hFc
Method: as §2, §3

mArtemin-MMH [11] = molecular target: T3, mArtemin-MMH; assay: blocking ELISA, antibody blocks 150 pM msARTN.mmh binding to plate-coated hGFRa3.hFc; * below lower limit of assay (3.75E-11 M)
Method: as §2, §3

MfArtemin-MMH [12] = molecular target: T2, MfArtemin-MMH; assay: blocking ELISA, antibody blocks 400 pM mfARTN.mmh binding to plate-coated hGFRa3.hFc; * below lower limit of assay (1.00E-10 M)
Method: as §2, §3

B1: H4H33349P (antibody, human IgG4 S228P, kappa, V domains shown)
VH: QVQLVESGGGVVQPGRSLRLSCEASGFTFSDYDLHWVRQAPGKGLEWVAFISNDGSNEYYPKSVKGRFSISRDNSKNTLYLQMNSLRAEDTAVYHCTKERDYYYDSSGSLDYWGQGTLVTVSS
VL: DIQMTQSPSSLSASVGDRVTITCRASQTINNYLNWYQQKPGKAPKLLIYTTSGLQSGVPSRFSGRGSGTDFTLAISSLQPEDFATYYCQQSYHSPFTFGPGTKVDIKR
notes: Fully human antibody; also called Artemin mAb; anti-ARTN antibody
With B1 as the binder, how does the “Max inhibition (%), SRE-luciferase reporter, 500 pM hArtemin” value (shortened to “Max inhibition (%) … 500 pM hArtemin”) (hArtemin-MMH [1]) read?
The value was 100%.

And the “Max inhibition (%), SRE-luciferase reporter, 3 nM mfArtemin” value (from here on “Max inhibition (%) … 3 nM mfArtemin”) (MfArtemin-MMH [2])?
The value was 100%.

And the “Max inhibition (%), SRE-luciferase reporter, 1 nM mArtemin” value (“Max inhibition (%) … 1 nM mArtemin” below) (mArtemin-MMH [3])?
The value was 100%.

And the “Artemin Binding Response (nm)” value (MfArtemin-MMH [4])?
The value was 0.12 nm.

What about the “Artemin Binding Response (nm)” value (mArtemin-MMH [5]) of the same binder?
Its value is 0.11 nm.

What about the “Artemin Binding Response (nm)” value (hArtemin-MMH [6]) of the same binder?
Its value is 0.07 nm.

And the “Artemin Binding Response (nm)” value (MfArtemin-MMH [7])?
The value was 0.02 nm.

And the “Artemin Binding Response (nm)” value (mArtemin-MMH [8])?
Its value is 0.07 nm.

What about the “% Blocking with 100 nM Ab” value (mArtemin-MMH [9]) of the same binder?
Its value is 88%.

What about the “% Blocking with 100 nM Ab” value (MfArtemin-MMH [10]) of the same binder?
Its value is 88%.

And the IC50 (mArtemin-MMH [11])?
The IC50 was 0.00765 nM.

And the IC50 (MfArtemin-MMH [12])?
Its IC50 is 0.0302 nM.

B2: H4H33336P (antibody, human IgG4 S228P, kappa, V domains shown)
VH: QVQLVESGGGVVQPGRSLRLSCVASGFILSHYGMHWVRQAPGKGLEWVAVIWFDGTNKYYADSVKGRFTVSRDNSKNTLYMQMNSLRAEDTAVYYCARDPPPARRGNYNGMDVWGQGTTVTVSS
VL: DIQMTQSPSSLSASVGDRVTITCRASQDIRNDLGWYQQKPGKAPKRLIFGASSLQSGVPLRFSGSGSGTEFTLTINNLQPEDFATFYCLQDNSYPWTFGQGTKVEIKR
notes: as for B1
With B2 as the binder, how does the “Max inhibition (%) … 500 pM hArtemin” value (hArtemin-MMH [1]) read?
Its value is 100%.

What about the “Max inhibition (%) … 3 nM mfArtemin” value (MfArtemin-MMH [2]) of the same binder?
The value was 100%.

What about the “Max inhibition (%) … 1 nM mArtemin” value (mArtemin-MMH [3]) of the same binder?
Its value is 100%.

What about the “Artemin Binding Response (nm)” value (MfArtemin-MMH [4]) of the same binder?
Its value is 0.06 nm.

And the “Artemin Binding Response (nm)” value (mArtemin-MMH [5])?
Its value is 0.03 nm.

And the “Artemin Binding Response (nm)” value (hArtemin-MMH [6])?
Its value is 0.03 nm.

What about the “Artemin Binding Response (nm)” value (MfArtemin-MMH [7]) of the same binder?
Its value is 0.01 nm.

What about the “Artemin Binding Response (nm)” value (mArtemin-MMH [8]) of the same binder?
The value was 0.01 nm.

What about the “% Blocking with 100 nM Ab” value (mArtemin-MMH [9]) of the same binder?
The value was 81%.

And the IC50 (mArtemin-MMH [9])?
Its IC50 is 0.41 nM.

What about the “% Blocking with 100 nM Ab” value (MfArtemin-MMH [10]) of the same binder?
Its value is 86%.

What about the IC50 (MfArtemin-MMH [12]) of the same binder?
Its IC50 is 0.075 nM.

B3: H4H33331P (antibody, human IgG4 S228P, kappa, V domains shown)
VH: EVQLVESGGDLVQPGGSLKLSCAASGFTFSGSAMHWVRQASGKGLEWVGRIRNKVHRYATEYGASVKGRFTISRDDSKNTAYLQMNSLKIEDTAVYYCVVVVPGSIEAFDIWGQGTMVTVSS
VL: DIQMTQSPSSLSASVGDRVTITCRASQSISTYLNWYQQKPGKAPNLLIYAASTLESGVPSRFSGSGSGTDFTLTISSLQPEDFEIYYCQQSYNIPWTFGQGTKVEIKR
notes: Fully human antibody (human variable and constant domains) from a VELOCIMMUNE mouse; also called Artemin mAb; anti-ARTN antibody
B3 was tested. Which “Max inhibition (%) … 500 pM hArtemin” value (hArtemin-MMH [1]) did it give?
Its value is 100%.

What about the “Max inhibition (%) … 3 nM mfArtemin” value (MfArtemin-MMH [2]) of the same binder?
Its value is 100%.

And the “Max inhibition (%) … 1 nM mArtemin” value (mArtemin-MMH [3])?
The value was 100%.

What about the “Artemin Binding Response (nm)” value (MfArtemin-MMH [4]) of the same binder?
The value was 0.09 nm.

What about the “Artemin Binding Response (nm)” value (mArtemin-MMH [5]) of the same binder?
Its value is 0.1 nm.

What about the “Artemin Binding Response (nm)” value (hArtemin-MMH [6]) of the same binder?
Its value is 0.02 nm.

And the “Artemin Binding Response (nm)” value (MfArtemin-MMH [7])?
Its value is 0 nm.

What about the “Artemin Binding Response (nm)” value (mArtemin-MMH [8]) of the same binder?
Its value is 0.03 nm.

And the “% Blocking with 100 nM Ab” value (mArtemin-MMH [9])?
The value was 83%.

And the “% Blocking with 100 nM Ab” value (MfArtemin-MMH [10])?
Its value is 90%.

And the IC50 (MfArtemin-MMH [10])?
The IC50 was 0.105 nM.

And the IC50 (mArtemin-MMH [11])?
The IC50 was < 0.0375 nM.
